We go through 72 molecules from patent publication US20250011363A1, “OPTIMIZED SHORTENED PEPTIDE THAT BINDS TO ACETYLCHOLINE RECEPTOR, AND USE THEREOF” (SKINMED CO., LTD., priority 2021, published 2025).

Assay [1] concerns the target acetylcholine receptor. The assay can be described thus: SPR, peptide at 10 uM on acetylcholine receptor.
Assay [2] deals with acetylcholine receptor. The assay can be described thus: SPR, peptide at 10 uM, acetylcholine receptor immobilized on chip.

B1: 5mer-681 (peptide)
peptide: KDTMR
B1 gave a Binding affinity (RU) in assay [1] of 18 RU.

B2: 5mer-903 (peptide)
peptide: RHHKR
For the molecule B2, in assay [2], the Binding affinity (RU) was determined as 21 RU.

B3: 5mer-979 (peptide)
peptide: RHHMK
B3 had a Binding affinity (RU) in assay [1] of 23 RU.

B4: 5mer-997 (peptide)
peptide: RYPHR
B4 had a Binding affinity (RU) in assay [1] of 30 RU.

B5: 5mer-688 (peptide)
peptide: RPHFK
B5: in assay [1], the Binding affinity (RU) is 31 RU.

B6: 5mer-912 (peptide)
peptide: KKMGR
With B6, the Binding affinity (RU) in assay [2] stood at 16 RU.

B7: 5mer-616 (peptide)
peptide: KFCPR
The molecule B7 showed a Binding affinity (RU) in assay [2] of 15 RU.

B8: 5mer-698 (peptide)
peptide: KFDWK
In turn, B8 yielded a Binding affinity (RU) in assay [1] of 12 RU.

B9: 5mer-602 (peptide)
peptide: KMSVR
As to B9, in assay [2], the Binding affinity (RU) is 12 RU.

B10: 5mer-980 (peptide)
peptide: RKPHR
In assay [1], B10 returned a Binding affinity (RU) of 33 RU.

B11: 5mer-684 (peptide)
peptide: KCAER
Turning to B11, the Binding affinity (RU) in assay [1] came to 27 RU.

B12: 5mer-680 (peptide)
peptide: RFTER
B12 gave a Binding affinity (RU) in assay [1] of 21 RU.

B13: 5mer-697 (peptide)
peptide: KASKK
In turn, B13 showed a Binding affinity (RU) in assay [1] of 25 RU.

B14: 5mer-691 (peptide)
peptide: KEWEK
In the case of B14, the Binding affinity (RU) in assay [1] was 16 RU.

B15: 5mer-611 (peptide)
peptide: KDHIR
Consider B15, for which, in assay [2], the Binding affinity (RU) stood at 33 RU.

B16: 5mer-693 (peptide)
peptide: RPSKK
For the molecule B16, the Binding affinity (RU) in assay [1] was 17 RU.

B17: 5mer-906 (peptide)
peptide: RKHAK
As to B17, the Binding affinity (RU) in assay [2] was 31 RU.

B18: 5mer-916 (peptide)
peptide: RCHER
The molecule B18 displayed a Binding affinity (RU) in assay [2] of 12 RU.

B19: 5mer-690 (peptide)
peptide: RAEIK
Regarding B19, in assay [1], the Binding affinity (RU) is 12 RU.

B20: 5mer-909 (peptide)
peptide: RINVK
Take B20: the Binding affinity (RU) in assay [2] was determined as 33 RU.

B21: 5mer-989 (peptide)
peptide: RCTAR
Molecule B21 came in with a Binding affinity (RU) in assay [1] of 31 RU.

B22: 5mer-606 (peptide)
peptide: RIHWK
In the case of B22, the Binding affinity (RU) in assay [2] was determined as 25 RU.

B23: 5mer-695 (peptide)
peptide: KKPDR
In assay [1], B23 registered a Binding affinity (RU) of 26 RU.

B24: 5mer-694 (peptide)
peptide: KNNAR
For B24, in assay [1], the Binding affinity (RU) amounted to 24 RU.

B25: 5mer-908 (peptide)
peptide: RCHFK
As for B25, in assay [2], the Binding affinity (RU) came out at 25 RU.

B26: 5mer-907 (peptide)
peptide: KDSVR
In assay [2], B26 showed a Binding affinity (RU) of 18 RU.

B27: 5mer-612 (peptide)
peptide: KCTDK
In assay [2], B27 registered a Binding affinity (RU) of 23 RU.

B28: 5mer-914 (peptide)
peptide: RPTMR
In assay [2], B28 gave a Binding affinity (RU) of 26 RU.

B29: 5mer-904 (peptide)
peptide: KPDPK
In turn, B29 had a Binding affinity (RU) in assay [2] of 23 RU.

B30: 5mer-685 (peptide)
peptide: RNDIK
In assay [1], B30 registered a Binding affinity (RU) of 21 RU.

B31: 5mer-913 (peptide)
peptide: KHTFK
B31: the Binding affinity (RU) in assay [2] was 13 RU.

B32: 5mer-605 (peptide)
peptide: RECFK
Consider B32, for which the Binding affinity (RU) in assay [2] came out at 22 RU.

B33: 5mer-687 (peptide)
peptide: RMEIR
Regarding B33, the Binding affinity (RU) in assay [1] is 22 RU.

B34: 5mer-692 (peptide)
peptide: RDHWK
For the molecule B34, the Binding affinity (RU) in assay [1] was 15 RU.

B35: 5mer-985 (peptide)
peptide: RDPKR
Turning to B35, the Binding affinity (RU) in assay [1] turned out to be 17 RU.

B36: 5mer-615 (peptide)
peptide: KCCNR
B36 had a Binding affinity (RU) in assay [2] of 20 RU.

B37: 5mer-603 (peptide)
peptide: RKEPK
In turn, B37 had a Binding affinity (RU) in assay [2] of 27 RU.

B38: 5mer-683 (peptide)
peptide: KYPDK
Take B38: the Binding affinity (RU) in assay [1] was 32 RU.

B39: 5mer-992 (peptide)
peptide: RNDKK
For B39, the Binding affinity (RU) in assay [1] was 15 RU.

B40: 5mer-994 (peptide)
peptide: KAWVR
B40 showed a Binding affinity (RU) in assay [1] of 26 RU.

B41: 5mer-990 (peptide)
peptide: KEEPK
As for B41, the Binding affinity (RU) in assay [1] was found to be 12 RU.

B42: 5mer-617 (peptide)
peptide: RYCAK
Regarding B42, the Binding affinity (RU) in assay [2] was found to be 28 RU.

B43: 5mer-601 (peptide)
peptide: RFCFK
Molecule B43 registered a Binding affinity (RU) in assay [2] of 13 RU.

B44: 5mer-986 (peptide)
peptide: RPMDK
With B44, the Binding affinity (RU) in assay [1] came out at 12 RU.

B45: 5mer-984 (peptide)
peptide: KNAHK
As to B45, the Binding affinity (RU) in assay [1] worked out at 11 RU.

B46: 5mer-915 (peptide)
peptide: KMTHR
In turn, B46 gave a Binding affinity (RU) in assay [2] of 28 RU.

B47: 5mer-996 (peptide)
peptide: RMTKK
B47 showed a Binding affinity (RU) in assay [1] of 32 RU.

B48: 5mer-609 (peptide)
peptide: RKTMK
B48 displayed a Binding affinity (RU) in assay [2] of 32 RU.

B49: 5mer-682 (peptide)
peptide: KPNVK
In turn, B49 returned a Binding affinity (RU) in assay [1] of 31 RU.

B50: 5mer-995 (peptide)
peptide: KFTDK
As for B50, the Binding affinity (RU) in assay [1] came out at 18 RU.

B51: 5mer-607 (peptide)
peptide: RIEER
B51 yielded a Binding affinity (RU) in assay [2] of 25 RU.

B52: 5mer-901 (peptide)
peptide: KCTNR
In assay [2], B52 came in with a Binding affinity (RU) of 30 RU.

B53: 5mer-614 (peptide)
peptide: RNTWK
Regarding B53, in assay [2], the Binding affinity (RU) came to 29 RU.

B54: 5mer-987 (peptide)
peptide: RAHWR
For B54, in assay [1], the Binding affinity (RU) is 22 RU.

B55: 5mer-910 (peptide)
peptide: RPCFR
In assay [2], B55 showed a Binding affinity (RU) of 17 RU.

B56: 5mer-905 (peptide)
peptide: RPSPR
The molecule B56 registered a Binding affinity (RU) in assay [2] of 30 RU.

B57: 5mer-608 (peptide)
peptide: RDSER
In the case of B57, the Binding affinity (RU) in assay [2] was found to be 20 RU.

B58: 5mer-604 (peptide)
peptide: RKEGK
Molecule B58 yielded a Binding affinity (RU) in assay [2] of 13 RU.

B59: 5mer-993 (peptide)
peptide: KEKFR
In the case of B59, in assay [1], the Binding affinity (RU) came to 27 RU.

B60: 5mer-610 (peptide)
peptide: KCDDK
Regarding B60, the Binding affinity (RU) in assay [2] turned out to be 16 RU.

B61: 5mer-696 (peptide)
peptide: RCEHR
Take B61: in assay [1], the Binding affinity (RU) turned out to be 11 RU.

B62: 5mer-991 (peptide)
peptide: RPEFR
In assay [1], B62 had a Binding affinity (RU) of 24 RU.

B63: 5mer-613 (peptide)
peptide: RAEFR
B63: the Binding affinity (RU) in assay [2] turned out to be 20 RU.

B64: 5mer-998 (peptide)
peptide: RCTAK
The molecule B64 came in with a Binding affinity (RU) in assay [1] of 18 RU.

B65: 5mer-689 (peptide)
peptide: RFSDK
In the case of B65, in assay [1], the Binding affinity (RU) came out at 20 RU.

B66: 5mer-988 (peptide)
peptide: RCKWR
Regarding B66, in assay [1], the Binding affinity (RU) turned out to be 17 RU.

B67: 5mer-911 (peptide)
peptide: REHGK
Turning to B67, in assay [2], the Binding affinity (RU) came out at 14 RU.

B68: 5mer-983 (peptide)
peptide: RTTGR
B68 returned a Binding affinity (RU) in assay [1] of 23 RU.

B69: 5mer-686 (peptide)
peptide: RFNIR
For B69, in assay [1], the Binding affinity (RU) was 18 RU.

B70: 5mer-902 (peptide)
peptide: REDPK
In assay [2], B70 displayed a Binding affinity (RU) of 23 RU.

B71: 5mer-982 (peptide)
peptide: KFMHK
As to B71, the Binding affinity (RU) in assay [1] amounted to 12 RU.

B72: 5mer-981 (peptide)
peptide: KNDKK
On to B72, for which the Binding affinity (RU) in assay [1] stood at 33 RU.
